Experimental findings from patent US20070244048A1 (published 2007) are described below.

Experiment [1] concerns the target T1, human NMUR1 (human), Q9HB89.
T1 chain: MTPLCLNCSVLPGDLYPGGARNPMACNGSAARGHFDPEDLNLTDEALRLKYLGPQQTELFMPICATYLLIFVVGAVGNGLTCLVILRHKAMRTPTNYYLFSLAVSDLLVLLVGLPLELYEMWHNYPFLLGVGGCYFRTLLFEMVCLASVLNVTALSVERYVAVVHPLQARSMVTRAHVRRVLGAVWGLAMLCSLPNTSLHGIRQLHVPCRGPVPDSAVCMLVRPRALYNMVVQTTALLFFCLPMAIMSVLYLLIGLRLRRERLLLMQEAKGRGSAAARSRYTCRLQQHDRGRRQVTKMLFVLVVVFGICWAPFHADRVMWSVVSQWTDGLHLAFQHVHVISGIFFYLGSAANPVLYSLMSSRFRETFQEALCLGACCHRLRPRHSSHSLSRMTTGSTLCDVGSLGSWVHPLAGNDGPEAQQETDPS
As to the kind of experiment: 125I-hNMU-25 displacement, HEK cell membranes. To be noted: remark: other sources report otherwise.

Experiment [2] has as its target T2, human NMUR1 (human, UniProt Q9HB89 1-426).
T2 sequence (looked up): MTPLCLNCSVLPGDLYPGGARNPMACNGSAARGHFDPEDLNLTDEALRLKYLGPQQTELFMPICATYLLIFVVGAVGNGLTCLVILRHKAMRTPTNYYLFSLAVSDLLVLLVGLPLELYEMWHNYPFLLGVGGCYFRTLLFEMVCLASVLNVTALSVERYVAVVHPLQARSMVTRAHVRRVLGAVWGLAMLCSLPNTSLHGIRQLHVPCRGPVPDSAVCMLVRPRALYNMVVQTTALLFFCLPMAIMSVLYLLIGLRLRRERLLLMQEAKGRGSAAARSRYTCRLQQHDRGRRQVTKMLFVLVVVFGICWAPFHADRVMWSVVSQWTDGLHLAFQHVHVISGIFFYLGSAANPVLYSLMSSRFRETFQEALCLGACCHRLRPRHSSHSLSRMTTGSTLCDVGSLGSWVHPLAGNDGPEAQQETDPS
As to the kind of experiment: cell-based or functional assay.

Experiment [3] deals with T3, human NMUR2 (human, UniProt Q9GZQ4 1-415). As to the kind of experiment: cell-based or functional assay.
Experiment [4] deals with T3, human NMUR2. As to the kind of experiment: 125I-hNMU-25 displacement, HEK cell membranes. The procedure:
(§1) Confluent cell monolayers expressing NMU receptors (the HEK cells described above) were harvested with phosphate buffered saline, collected by centrifugation, and resuspended in membrane buffer (50 mM TrisCl pH 7.4, 5 mM MgCl₂, 1× Protease Inhibitor Cocktail, 10 μM phosphoramidon). After the cell pellet was homogenized, the solution was centrifuged at 18,000 rpm for 20 minutes at 4° C. The pellet was resuspended in membrane buffer to yield a final concentration of 0.5-5 μg/μL of membrane and stored at −80° C.
(§2) Experiments were performed in assay buffer (25 mM TrisCl, pH 7.4, 10 mM MgCl₂, 2mM EDTA, 1× Protease Inhibitor Cocktail, 100 μg/mL Bacitricin, 10 μM phosphoramidon) in 200 μL volumes in a 96-well format using 2-5 μg of membrane and […] ¹²⁵I-hNMU-25 (about 12,000 cpm/well). For non-specific binding, 1 μM hNMU-25 was added. About 5 μL of peptides were added to measure antagonist activity, and the entire reaction was incubated at room temperature with shaking for 80 minutes. The reaction was terminated by rapid filtration through 0.3% poly-ethylenimine presoaked Millipore 96-well filter plates and washed with ice-cold buffer (5 mM TrisCl pH 7.4, 10 mM MgCl₂, 2.5 mM EDTA, 0.04% Triton X-100). Plates were air-dried overnight at room temperature and recovered radioactivity was determined by standard scintillation counting. IC₅₀ values were determined using GraphPad Prism software.
(§3) Concentration-response curves and radioligand-binding data were fitted using Prism (GraphPad Software). Results are summarized below in Tables 8 and 9.

The target in experiment [5] is T2, human NMUR1. As to the kind of experiment: cell-based or functional assay. The source holds these as a separate data set.
The target in experiment [6] is T3, human NMUR2. As to the kind of experiment: cell-based or functional assay. The source holds these as a separate data set.
Experiment [7] has as its target T2, human NMUR1. As to the kind of experiment: 125I-hNMU-25 displacement, HEK cell membranes. The procedure: as §1, §2, §3
Experiment [8] addresses T4, rat NMUR2 (rat, UniProt Q9ESQ4 1-395). As to the kind of experiment: cell-based or functional assay.
Experiment [9] deals with T5, rat NMUR1-ATG (rat, UniProt Q9JJI5 1-425).
T5 sequence (looked up): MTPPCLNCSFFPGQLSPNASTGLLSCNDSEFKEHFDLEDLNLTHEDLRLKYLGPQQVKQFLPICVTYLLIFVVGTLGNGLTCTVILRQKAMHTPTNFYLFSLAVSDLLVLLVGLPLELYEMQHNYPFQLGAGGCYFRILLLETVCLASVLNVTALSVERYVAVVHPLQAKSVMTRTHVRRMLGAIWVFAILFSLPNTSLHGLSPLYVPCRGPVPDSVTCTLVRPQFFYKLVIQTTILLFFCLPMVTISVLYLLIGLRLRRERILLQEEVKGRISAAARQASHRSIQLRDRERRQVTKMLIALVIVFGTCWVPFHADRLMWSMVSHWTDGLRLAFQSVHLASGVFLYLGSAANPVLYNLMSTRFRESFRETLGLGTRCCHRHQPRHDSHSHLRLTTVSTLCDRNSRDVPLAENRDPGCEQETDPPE
As to the kind of experiment: cell-based or functional assay.

Experiment [10] has as its target T2, human NMUR1. As to the kind of experiment: cell-based or functional assay. The source holds these as a separate data set.
Experiment [11] deals with T6, mouse NMUR2 (mouse, UniProt Q8BZ39 1-395). As to the kind of experiment: cell-based or functional assay.
The target of experiment [12] is T7, mouse NMUR1-ATG (mouse, UniProt O55040 1-428).
T7 sequence (looked up): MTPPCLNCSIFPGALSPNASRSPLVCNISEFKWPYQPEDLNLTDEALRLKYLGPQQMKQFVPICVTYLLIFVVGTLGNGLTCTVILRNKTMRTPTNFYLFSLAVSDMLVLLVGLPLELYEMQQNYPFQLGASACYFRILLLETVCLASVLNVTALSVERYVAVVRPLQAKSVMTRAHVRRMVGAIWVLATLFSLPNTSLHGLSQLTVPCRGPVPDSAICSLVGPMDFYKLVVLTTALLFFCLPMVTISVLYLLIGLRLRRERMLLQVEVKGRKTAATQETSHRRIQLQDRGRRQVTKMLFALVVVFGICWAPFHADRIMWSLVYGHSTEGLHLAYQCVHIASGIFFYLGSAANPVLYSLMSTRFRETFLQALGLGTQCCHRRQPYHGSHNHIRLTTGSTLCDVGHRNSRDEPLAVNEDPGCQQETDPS
As to the kind of experiment: cell-based or functional assay.

The target in experiment [13] is T8, rat NMUR1-TTG (rat, UniProt Q9JJI5 1-425).
T8 sequence (looked up): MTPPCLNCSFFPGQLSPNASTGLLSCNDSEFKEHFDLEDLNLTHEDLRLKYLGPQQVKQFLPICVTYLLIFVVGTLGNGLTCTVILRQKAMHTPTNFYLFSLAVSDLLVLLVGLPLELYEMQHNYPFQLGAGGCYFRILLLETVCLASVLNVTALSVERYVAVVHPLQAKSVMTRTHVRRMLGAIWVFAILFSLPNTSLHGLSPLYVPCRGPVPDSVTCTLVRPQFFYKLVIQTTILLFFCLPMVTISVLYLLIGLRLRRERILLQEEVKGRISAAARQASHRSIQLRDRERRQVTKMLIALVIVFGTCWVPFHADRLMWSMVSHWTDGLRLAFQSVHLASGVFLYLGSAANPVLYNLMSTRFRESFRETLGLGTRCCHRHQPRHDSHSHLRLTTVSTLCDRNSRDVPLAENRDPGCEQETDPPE
As to the kind of experiment: cell-based or functional assay.

Experiment [14] addresses T3, human NMUR2. As to the kind of experiment: cell-based or functional assay. This is another data set of the same source.
Experiment [15] has as its target T9, mouse NMUR1-CTG (mouse, UniProt O55040 1-428).
T9 sequence (looked up): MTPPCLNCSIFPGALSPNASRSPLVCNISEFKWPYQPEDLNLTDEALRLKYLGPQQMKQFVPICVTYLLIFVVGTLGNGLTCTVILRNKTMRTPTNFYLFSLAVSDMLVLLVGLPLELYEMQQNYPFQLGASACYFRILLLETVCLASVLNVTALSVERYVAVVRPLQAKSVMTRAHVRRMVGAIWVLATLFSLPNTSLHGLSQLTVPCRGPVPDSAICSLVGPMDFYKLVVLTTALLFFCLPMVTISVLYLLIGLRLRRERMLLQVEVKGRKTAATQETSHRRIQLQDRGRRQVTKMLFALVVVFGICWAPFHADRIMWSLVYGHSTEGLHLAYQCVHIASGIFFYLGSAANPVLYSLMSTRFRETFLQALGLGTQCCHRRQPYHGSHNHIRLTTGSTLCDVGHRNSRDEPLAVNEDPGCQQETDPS
As to the kind of experiment: cell-based or functional assay.

Experiment [16] concerns the target T4, rat NMUR2. As to the kind of experiment: 125I-hNMU-25 displacement, cell membranes.
The target in experiment [17] is T5, rat NMUR1-ATG. As to the kind of experiment: 125I-hNMU-25 displacement, cell membranes.
Experiment [18] has as its target T2, human NMUR1. As to the kind of experiment: 125I-hNMU-25 displacement, cell membranes.
In experiment [19] the target is T6, mouse NMUR2. As to the kind of experiment: 125I-hNMU-25 displacement, cell membranes.
Experiment [20] concerns the target T7, mouse NMUR1-ATG. As to the kind of experiment: 125I-hNMU-25 displacement, cell membranes.
Experiment [21] addresses T8, rat NMUR1-TTG. As to the kind of experiment: 125I-hNMU-25 displacement, cell membranes.
Experiment [22] deals with T3, human NMUR2. As to the kind of experiment: 125I-hNMU-25 displacement, cell membranes.
For experiment [23], the target named is T9, mouse NMUR1-CTG. As to the kind of experiment: 125I-hNMU-25 displacement, cell membranes.

Read-outs that look alike come from different tables or passages of the source. Non-standard residues stand in square brackets, D forms with d. No end group written: not given here.

T4 sequence (Q9ESQ4 whole entry): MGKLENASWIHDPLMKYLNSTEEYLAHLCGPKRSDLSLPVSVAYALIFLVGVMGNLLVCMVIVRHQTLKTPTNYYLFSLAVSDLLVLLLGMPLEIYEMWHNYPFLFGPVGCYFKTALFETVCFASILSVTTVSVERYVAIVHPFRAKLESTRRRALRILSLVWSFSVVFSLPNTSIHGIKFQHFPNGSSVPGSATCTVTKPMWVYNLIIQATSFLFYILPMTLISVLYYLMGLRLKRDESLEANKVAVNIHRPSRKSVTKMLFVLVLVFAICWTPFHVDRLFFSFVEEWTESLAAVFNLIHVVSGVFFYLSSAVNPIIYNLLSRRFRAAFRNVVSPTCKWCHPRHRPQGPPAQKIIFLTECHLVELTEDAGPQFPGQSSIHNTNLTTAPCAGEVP
T3 sequence (Q9GZQ4 whole entry): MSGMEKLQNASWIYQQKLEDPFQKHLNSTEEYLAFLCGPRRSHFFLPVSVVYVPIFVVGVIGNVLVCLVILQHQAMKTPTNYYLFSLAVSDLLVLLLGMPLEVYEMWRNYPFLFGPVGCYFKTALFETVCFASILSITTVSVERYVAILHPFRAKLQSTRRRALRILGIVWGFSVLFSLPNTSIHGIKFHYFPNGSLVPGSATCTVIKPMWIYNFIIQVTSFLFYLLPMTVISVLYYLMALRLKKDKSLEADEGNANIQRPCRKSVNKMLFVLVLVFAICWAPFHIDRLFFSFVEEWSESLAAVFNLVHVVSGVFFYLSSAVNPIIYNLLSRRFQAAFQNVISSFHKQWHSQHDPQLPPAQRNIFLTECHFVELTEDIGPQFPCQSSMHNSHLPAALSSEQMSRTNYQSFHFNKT
T6 sequence (Q8BZ39 whole entry): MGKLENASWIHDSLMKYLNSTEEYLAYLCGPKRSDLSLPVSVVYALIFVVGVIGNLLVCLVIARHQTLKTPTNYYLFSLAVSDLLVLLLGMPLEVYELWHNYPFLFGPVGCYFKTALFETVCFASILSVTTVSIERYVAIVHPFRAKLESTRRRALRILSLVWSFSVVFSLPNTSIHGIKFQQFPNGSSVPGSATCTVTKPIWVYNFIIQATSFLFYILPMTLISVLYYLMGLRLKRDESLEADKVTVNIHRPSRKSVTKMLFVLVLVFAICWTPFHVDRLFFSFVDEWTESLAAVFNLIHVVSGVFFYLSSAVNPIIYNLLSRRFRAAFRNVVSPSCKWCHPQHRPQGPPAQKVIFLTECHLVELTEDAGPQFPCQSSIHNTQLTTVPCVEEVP

B1: neuromedin U receptor agonist L (peptide)
peptide: FWLFRARN-NH2
As usually defined, the EC50 is the concentration that produces a half-maximal response. A high value points to weaker potency. As a reminder, the IC50 is the point on the concentration scale where inhibition reaches its midpoint. Low values mean greater potency in that assay, high ones weaker potency in that assay. As to B1, the % activity (binding) in experiment [1] worked out at 0%; in [4], 100%. The “% activity” value came to 74% in [2] and 100% in [3]. Further, the “EC50” value in experiment [2] was greater than 1 µM; in [3], 0.0062 µM. Also, the IC50 in experiment [4] was found to be 0.037 µM.

B2: neuromedin U receptor agonist H (peptide)
peptide: FRVDEEFQSPFASQSRGYF[dL]WRPRN-NH2
modifications: not fully specified
As to B2, the % activity in experiment [5] is 88%; in [8], 42%; in [9] it was 95%; in experiment [10], 90%; in experiment [11], 40%; in experiment [12] it was 90%. Besides, the results for the % activity in [13], in experiment [14] and in [15] were 91%, 0% and 77%, respectively. Moreover, the IC50 (nM), functional in experiment [5] was 19 nM; in [6], greater than 1000 nM; in [8] it was greater than 1000 nM; in experiment [9], 31.1 nM; in [10] it was 1.25 nM; in experiment [11] it was greater than 1000 nM. Further, the IC50 (nM), functional is 25 nM in experiment [12], 153 nM in experiment [13], greater than 1000 nM in [14] and 66 nM in experiment [15]. Further, the % activity (binding) worked out at 93% in experiment [7] and 7% in [4]. Besides, the IC50 in experiment [7] was determined as 0.0011 µM; in experiment [4] it was 0.78 µM; in experiment [17] it was 0.0159 µM; in experiment [18], 0.0011 µM; in experiment [20], 0.066 µM; in experiment [21], 0.011 µM. Moreover, the IC50 turned out to be 0.782 µM in [22] and 0.025 µM in [23]. In addition, the % inhibition of NMU-25 binding was 0% in [16]; 100% in experiment [17]; 93% in experiment [18]; 20% in experiment [19]; 77% in [20]; 100% in experiment [21]. Besides, the values for the % inhibition of NMU-25 binding in experiment [22] and in experiment [23] were 7% and 83%, respectively.
